This note sets out measurements from publication PMC5923501.

Common to all, as to experiment: flow cytometry on cells; 5 × 10^6 CHO745 cells expressing the receptor or chimera incubated with 10 μg of Alexa fluorophore conjugated eE2 in 600 μL PBS at room temperature for 2 h, washed three times with PBS; read-out MFI of Alexa-647; one representative experiment of three
Experiment [1] has as its target hCD81 LEL-hCD9 backbone chimera (human) (UniProt P60033).
For experiment [2], the target named is scavenger receptor type B class I (SR-BI) (UniProt Q8WTV0).
Experiment [3] concerns the target hCD81 LEL-ceTSP9 backbone chimera (Caenorhabditis elegans | human) (UniProt P60033).

UniProt Q8WTV0, sequence (Q8WTV0 whole entry): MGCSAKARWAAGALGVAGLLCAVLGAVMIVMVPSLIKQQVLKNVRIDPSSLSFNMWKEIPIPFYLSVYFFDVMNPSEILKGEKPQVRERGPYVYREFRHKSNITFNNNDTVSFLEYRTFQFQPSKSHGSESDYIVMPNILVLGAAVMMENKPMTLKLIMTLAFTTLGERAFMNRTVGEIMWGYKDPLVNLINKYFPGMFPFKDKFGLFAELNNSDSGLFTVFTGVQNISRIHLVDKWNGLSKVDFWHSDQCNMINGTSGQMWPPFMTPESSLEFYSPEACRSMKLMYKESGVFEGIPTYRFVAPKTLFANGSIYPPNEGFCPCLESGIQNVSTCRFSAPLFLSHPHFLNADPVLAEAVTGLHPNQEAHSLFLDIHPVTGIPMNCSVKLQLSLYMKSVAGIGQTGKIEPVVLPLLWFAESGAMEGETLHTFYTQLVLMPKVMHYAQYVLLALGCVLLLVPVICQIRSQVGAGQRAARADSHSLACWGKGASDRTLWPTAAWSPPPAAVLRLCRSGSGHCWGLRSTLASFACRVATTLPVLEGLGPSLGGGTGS

On to ΔHVR1 J6 eE2 (domain or fragment), for which the fold change of binding against wildtype J6 eE2 in experiment [1] is 3 fold.

With “HCV E2 ectodomain (eE2) from genotype 2a (strain J6) (from UniProt P26660 384-729) (domain or fragment)”, the MFI was 65000 in experiment [2] and 15000 in experiment [3].

On to “HCV E2 ectodomain (eE2) from genotype 1a (strain H77) (from UniProt P27958 384-725) (domain or fragment)”, for which the MFI turned out to be 22000 in experiment [2] and 20000 in experiment [3].
